Assay results as given in PMC9709071.

Tests used:
Recombinant DR3-Fc [1] = target: Recombinant DR3-Fc (UniProt Q93038); assay: ELISA; DR3-Fc immobilised non-specifically on Maxisorp plates (overnight, 4 °C), casein block; TL1A added in 3-fold dilutions, overnight 4 °C; bound TL1A detected with polyclonal rabbit anti-human TL1A-biotin and streptavidin-HRP; concentrations normalised to TL1A trimers; triplicate
Recombinant DR3-Fc [2] = target: Recombinant DR3-Fc (UniProt Q93038); assay: ELISA; receptor (DR3-Fc; DcR3) immobilised on Maxisorp plates, TL1A variant titrated in 3-fold dilutions, overnight 4 °C, detected with anti-human TL1A-biotin and streptavidin-HRP; concentrations normalised to TL1A trimer; triplicate
DcR3 = DcR3 (UniProt O95407); assay: as above
Sequence of DcR3 (O95407 30-300): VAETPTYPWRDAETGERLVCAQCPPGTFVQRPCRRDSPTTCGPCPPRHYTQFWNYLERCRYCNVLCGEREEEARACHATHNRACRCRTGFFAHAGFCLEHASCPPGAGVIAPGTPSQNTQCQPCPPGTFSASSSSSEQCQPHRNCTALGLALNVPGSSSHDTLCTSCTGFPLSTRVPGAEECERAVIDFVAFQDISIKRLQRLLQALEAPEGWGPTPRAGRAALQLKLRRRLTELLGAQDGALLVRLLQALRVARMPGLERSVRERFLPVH

Sequence of Recombinant DR3-Fc (Q93038 25-199): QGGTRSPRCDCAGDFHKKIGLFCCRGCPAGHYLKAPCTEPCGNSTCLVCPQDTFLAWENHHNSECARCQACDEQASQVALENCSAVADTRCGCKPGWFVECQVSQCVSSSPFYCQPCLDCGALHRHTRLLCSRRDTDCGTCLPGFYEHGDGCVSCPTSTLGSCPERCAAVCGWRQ

Substance | EC50 (Recombinant DR3-Fc [1]) | EC50 (Recombinant DR3-Fc [2]) | EC50 (DcR3)
Fc-His-TL1A (TL1W61) (complex) | 10.2 nM | – | –
HSA-scTL1A (TL1W15) (from UniProt O95150 84-251; O95150 84-251; O95150 84-251) (ligand) | 29.2 nM | – | –
His-scTL1A TL1W19 (from UniProt O95150 84-251; O95150 84-251; O95150 84-251) (ligand) | 27.3 nM | – | –
TL1W24 (F209A) (from UniProt O95150 1-251) (ligand) | – | 281 nM | 30.7 nM
TL1W25 (N207A) (from UniProt O95150 1-251) (ligand) | – | 13.4 nM | 3.7 nM
TL1W27 (T239E) (from UniProt O95150 1-251) (ligand) | – | – | 34.3 nM
TL1W28 (E190G) (from UniProt O95150 1-251) (ligand) | – | 22.6 nM | 5.7 nM
TL1W29 (P189A) (from UniProt O95150 1-251) (ligand) | – | 710 nM | 7.6 nM
TL1W30 (N112E) (from UniProt O95150 1-251) (ligand) | – | 16.4 nM | 4.7 nM
TL1W31 (R103Q) (from UniProt O95150 1-251) (ligand) | – | 9.5 nM | 2.5 nM
TL1W32 (Y188A) (from UniProt O95150 1-251) (ligand) | – | 565 nM | 7.6 nM
TL1W33 (E241L) (from UniProt O95150 1-251) (ligand) | – | – | 5.7 nM
TL1W33 (R103A) (from UniProt O95150 1-251) (ligand) | – | 25 nM | 3.3 nM
TL1W37 (L123E) (from UniProt O95150 1-251) (ligand) | – | 423 nM | 24.3 nM
TL1W39 (L123G) (from UniProt O95150 1-251) (ligand) | – | 184 nM | 38.2 nM
TL1W40 (L123S) (from UniProt O95150 1-251) (ligand) | – | 30.7 nM | 16.4 nM
TL1W41 (E120A) (from UniProt O95150 1-251) (ligand) | – | 100 nM | 32.6 nM
TL1W42 (F114A) (from UniProt O95150 1-251) (ligand) | – | 77.7 nM | 11.4 nM
TL1W43 (Y188S) (from UniProt O95150 1-251) (ligand) | – | 207 nM | 72.2 nM
TL1W44 (P189K) (from UniProt O95150 1-251) (ligand) | – | 168 nM | 59.1 nM
TL1W46 (T239W) (from UniProt O95150 1-251) (ligand) | – | 284 nM | –
TL1W47 (E241A) (from UniProt O95150 1-251) (ligand) | – | 260 nM | 1310 nM
TL1W78 (R103H) (from UniProt O95150 1-251) (ligand) | – | 77.2 nM | 8.1 nM
TL1W79 (R103E) (from UniProt O95150 1-251) (ligand) | – | 204 nM | 7.1 nM
TL1W81 (K111S) (from UniProt O95150 1-251) (ligand) | – | 34.4 nM | 50.9 nM
TL1W82 (K111E) (from UniProt O95150 1-251) (ligand) | – | 25.8 nM | 10.6 nM
TL1W83 (E120K) (from UniProt O95150 1-251) (ligand) | – | – | 2.2 nM

Substance | EC50 (Recombinant DR3-Fc [1]) | EC50 (Recombinant DR3-Fc [2]) | EC50 (DcR3)
TL1W84 (E120H) (from UniProt O95150 1-251) (ligand) | – | 182 nM | 55.7 nM
TL1W85 (G124S) (from UniProt O95150 1-251) (ligand) | – | 296 nM | 57.1 nM
TL1W86 (G124K) (from UniProt O95150 1-251) (ligand) | – | – | 2.9 nM
TL1W87 (G124D) (from UniProt O95150 1-251) (ligand) | – | 14.8 nM | –
TL1W88 (R156A) (from UniProt O95150 1-251) (ligand) | – | – | 13.5 nM
TL1W89 (R156Y) (from UniProt O95150 1-251) (ligand) | – | – | 8 nM
TL1W90 (R156K) (from UniProt O95150 1-251) (ligand) | – | 188 nM | 11 nM
TL1W91 (R156E) (from UniProt O95150 1-251) (ligand) | – | – | 8.3 nM
TL1W93 (M158K) (from UniProt O95150 1-251) (ligand) | – | 22.5 nM | 55.9 nM
TL1W94 (M158E) (from UniProt O95150 1-251) (ligand) | – | 58.7 nM | 18.7 nM
TL1W96 (R170E) (from UniProt O95150 1-251) (ligand) | – | 87 nM | 16.4 nM
TL1W97 (K173S) (from UniProt O95150 1-251) (ligand) | – | 131 nM | 6.7 nM
TL1W98 (K173R) (from UniProt O95150 1-251) (ligand) | – | 2050 nM | 27.8 nM
TL1W99 (S176A) (from UniProt O95150 1-251) (ligand) | – | 34.8 nM | 11.5 nM
TL1W100 (S176L) (from UniProt O95150 1-251) (ligand) | – | 324 nM | 15 nM
TL1W101 (S176N) (from UniProt O95150 1-251) (ligand) | – | – | 20.4 nM
TL1W102 (S176K) (from UniProt O95150 1-251) (ligand) | – | 182 nM | 29.2 nM
TL1W103 (T185A) (from UniProt O95150 1-251) (ligand) | – | 57.9 nM | 11.5 nM
TL1W104 (T185L) (from UniProt O95150 1-251) (ligand) | – | 49.4 nM | 19.3 nM
TL1W105 (T185N) (from UniProt O95150 1-251) (ligand) | – | 180 nM | 11.3 nM
TL1W106 (T185D) (from UniProt O95150 1-251) (ligand) | – | 124 nM | 79.9 nM
TL1W107 (D186Y) (from UniProt O95150 1-251) (ligand) | – | 63.8 nM | 6.2 nM
TL1W108 (S187A) (from UniProt O95150 1-251) (ligand) | – | 39.1 nM | –
TL1W110 (S187K) (from UniProt O95150 1-251) (ligand) | – | 33.7 nM | 15.8 nM
TL1W111 (S187D) (from UniProt O95150 1-251) (ligand) | – | 44.2 nM | 16.7 nM
TL1W112 (P189F) (from UniProt O95150 1-251) (ligand) | – | 202 nM | 66.1 nM
TL1W113 (P189S) (from UniProt O95150 1-251) (ligand) | – | 1000 nM | 19.8 nM

Substance | EC50 (Recombinant DR3-Fc [1]) | EC50 (Recombinant DR3-Fc [2]) | EC50 (DcR3)
TL1W114 (T192A) (from UniProt O95150 1-251) (ligand) | – | 23.3 nM | 10 nM
TL1W115 (T192F) (from UniProt O95150 1-251) (ligand) | – | 14.2 nM | 10.6 nM
TL1W116 (T192K) (from UniProt O95150 1-251) (ligand) | – | 77 nM | 23.3 nM
TL1W117 (T192E) (from UniProt O95150 1-251) (ligand) | – | 113 nM | 12 nM
TL1W118 (S206A) (from UniProt O95150 1-251) (ligand) | – | 41.7 nM | 8.8 nM
TL1W119 (S206F) (from UniProt O95150 1-251) (ligand) | – | 87.5 nM | 8.1 nM
TL1W120 (S206K) (from UniProt O95150 1-251) (ligand) | – | 114 nM | 91 nM
TL1W121 (S206E) (from UniProt O95150 1-251) (ligand) | – | 105 nM | 17.2 nM
TL1W123 (N207S) (from UniProt O95150 1-251) (ligand) | – | 26.8 nM | 8.6 nM
TL1W124 (N207k) (from UniProt O95150 1-251) (ligand) | – | 110 nM | 15.4 nM
TL1W125 (N207E) (from UniProt O95150 1-251) (ligand) | – | 506 nM | 9.8 nM
TL1W126 (F209W) (from UniProt O95150 1-251) (ligand) | – | 56.8 nM | 13.7 nM
TL1W127 (Y238A) (from UniProt O95150 1-251) (ligand) | – | 4620 nM | 8.9 nM
TL1W128 (Y238S) (from UniProt O95150 1-251) (ligand) | – | – | 10.5 nM
TL1W129 (Y238K) (from UniProt O95150 1-251) (ligand) | – | 446 nM | 9 nM
TL1W130 (Y238R) (from UniProt O95150 1-251) (ligand) | – | – | 16.9 nM
TL1W131 (Y238E) (from UniProt O95150 1-251) (ligand) | – | 300 nM | 6.6 nM
TL1W132 (T239A) (from UniProt O95150 1-251) (ligand) | – | 144 nM | 27.2 nM
TL1W133 (T239F) (from UniProt O95150 1-251) (ligand) | – | – | 10.8 nM
TL1W134 (T239K) (from UniProt O95150 1-251) (ligand) | – | – | 21.5 nM
TL1W135 (K240A) (from UniProt O95150 1-251) (ligand) | – | – | 8.5 nM
TL1W136 (K240F) (from UniProt O95150 1-251) (ligand) | – | 266 nM | 178 nM
TL1W137 (K240S) (from UniProt O95150 1-251) (ligand) | – | 336 nM | 11.8 nM
TL1W138 (K240D) (from UniProt O95150 1-251) (ligand) | – | – | 59.5 nM
TL1W139 (E241Q) (from UniProt O95150 1-251) (ligand) | – | – | 17.3 nM
